The target in one assay is HLA-B*40:01. The experiment in a line: IEDB peptide-MHC binding, purified MHC/competitive/radioactivity; filed as Kd, often an IC50 or EC50 that approximates it; ≥ and ≤ were set here for values at or beyond the usual limits of such assays.
For another assay, the target named is HLA-A*01:01. Described as above.
The target of a further assay is HLA-A*23:01. Described as above.
A further assay addresses HLA-A*24:02. The assay is described as above.
The next assay concerns the target HLA-A*26:01. Described as above.
Another assay has as its target HLA-A*29:02. The description is as above.
A further assay concerns the target HLA-A*30:02. Described as above.
A further assay concerns the target HLA-B*15:01. The experiment in a line: IEDB peptide-MHC binding, purified MHC/direct/fluorescence; filed as Kd, often an IC50 or EC50 that approximates it; ≥ and ≤ were set here for values at or beyond the usual limits of such assays. The following applies: source organism: Mammarenavirus lassaense.
A further assay addresses HLA-B*53:01. The experiment in a line: IEDB peptide-MHC binding, purified MHC/competitive/radioactivity; filed as Kd, often an IC50 or EC50 that approximates it; ≥ and ≤ were set here for values at or beyond the usual limits of such assays.
The next assay concerns the target HLA-A*03:01. The experiment in a line: IEDB peptide-MHC binding, purified MHC/direct/fluorescence; filed as Kd, often an IC50 or EC50 that approximates it; ≥ and ≤ were set here for values at or beyond the usual limits of such assays. The note with it: source organism: Shigella sonnei Ss046.
In another assay the target is HLA-A*31:01. The description is as above.
A further assay concerns the target HLA-B*44:02. The experiment in a line: IEDB peptide-MHC binding, purified MHC/competitive/radioactivity; filed as Kd, often an IC50 or EC50 that approximates it; ≥ and ≤ were set here for values at or beyond the usual limits of such assays.
The next assay addresses HLA-B*44:03. The description is as above.
A further assay addresses HLA-A*33:01. Described as above. The following applies: source organism: SARS coronavirus Tor2.
For another assay, the target named is HLA-A*68:01. The assay is described as above. The following applies: source organism: SARS coronavirus Tor2.
Setting [1] is: source organism: Dengue virus 4 Philippines/H241/1956.
The mark [2] stands for this setting: source organism: Mammarenavirus brazilense.
Where [3] appears, read: source organism: Dengue virus 2 Jamaica/1409/1983.
[4] abbreviates: source organism: Dengue virus 1 Singapore/S275/1990.
Where [5] appears, read: source organism: SARS coronavirus Tor2.
[6] abbreviates: source organism: Dengue virus 3 Martinique/1243/1999.
Where [7] appears, read: source organism: Mammarenavirus guanaritoense.
Setting [8] is: source organism: Dengue virus 1 Brazil/97-11/1997.
[9] abbreviates: source organism: Mammarenavirus lassaense.
Setting [10] is: source organism: Mammarenavirus juninense.

These results are taken from the Immune Epitope Database (IEDB).

Some results are limits rather than exact numbers.

With GEFRLRGEQR, the dissociation constant (Kd) with HLA-B*40:01 (setting [1]) was found to be 1400 nM.
With VTDVTLLMA, the Kd in the assay with HLA-A*01:01 (setting [2]) was 8.7 nM; with HLA-A*23:01 (setting [2]) it was 18200 nM; with HLA-A*24:02 (setting [2]), at least 77500 nM; with HLA-A*26:01 (setting [2]), at least 77900 nM; with HLA-A*29:02 (setting [2]) it was at least 23400 nM; with HLA-A*30:02 (setting [2]), 423 nM.
For the sequence SYSMCTGKF, the figures for the Kd with HLA-A*23:01 (setting [3]) and with HLA-A*24:02 (setting [3]) were 142 nM and 108 nM, respectively.
As to VYPLSIPATL, the results for the Kd with HLA-A*23:01 (setting [4]) and in the assay with HLA-A*24:02 (setting [4]) were 15.3 nM and 111 nM, respectively.
Take AYNVVNKGHF: the Kd in the assay with HLA-A*01:01 (setting [5]) was at least 55200 nM; with HLA-A*23:01 (setting [5]) it was 476 nM; with HLA-A*24:02 (setting [5]), 316 nM; with HLA-A*26:01 (setting [5]), at least 37500 nM; with HLA-A*29:02 (setting [5]), 978 nM; in the assay with HLA-A*30:02 (setting [5]), 11200 nM.
In the case of LIDGISLGL, the Kd with HLA-A*01:01 (source organism: Dengue virus 4 Dominica/814669/1981) is 10400 nM.
Turning to STTEAILPEY, the figures for the dissociation constant (Kd) with HLA-A*01:01 (setting [6]), with HLA-A*26:01 (setting [6]) and with HLA-A*30:02 (setting [6]) were 232 nM, 48 nM and at least 61200 nM, respectively.
LETPNLAERV: in the assay with HLA-B*40:01 (setting [4]), the Kd turned out to be 1010 nM.
On to ALGKSEFQIY, for which the Kd with HLA-A*01:01 (setting [3]) was 1540 nM; with HLA-A*30:02 (setting [3]) it was at least 69700 nM.
For the sequence MSPALFHAFF, the values for the Kd in the assay with HLA-A*23:01 (setting [7]), with HLA-A*24:02 (setting [7]) and with HLA-A*29:02 (setting [7]) were 148 nM, 122 nM and 513 nM, respectively.
Regarding ESVKTQFNY, the Kd was 2610 nM with HLA-A*01:01 (setting [5]); at least 77800 nM with HLA-A*23:01 (setting [5]); at least 77600 nM in the assay with HLA-A*24:02 (setting [5]); 902 nM with HLA-A*26:01 (setting [5]); 31.2 nM with HLA-A*29:02 (setting [5]); 505 nM in the assay with HLA-A*30:02 (setting [5]).
LTLTAAVLML: in the assay with HLA-A*01:01 (setting [8]), the Kd was 6160 nM.
Regarding VTDFKGKTV, in the assay with HLA-A*01:01 (setting [3]), the Kd is at least 20300 nM.
For IQNKLSSTF, the Kd was 24 nM with HLA-B*15:01, 345 nM with HLA-A*23:01 (setting [9]), 272 nM with HLA-A*24:02 (setting [9]) and at least 35000 nM in the assay with HLA-A*29:02 (setting [9]).
Consider MIDKTPVHSW, for which the Kd with HLA-B*53:01 (source organism: Dengue virus 4 Thailand/0348/1991) was 725 nM.
For the sequence FETTMRGAKR, the Kd in the assay with HLA-B*40:01 (setting [3]) came to 3580 nM.
For the sequence SYLAGAGLAF, the Kd in the assay with HLA-A*23:01 (setting [8]) was found to be 4.35 nM; with HLA-A*24:02 (setting [8]) it was 71.5 nM.
In the case of RPVLFRYTR, the Kd in the assay with HLA-A*03:01 was at least 20000 nM; with HLA-A*31:01 (source organism: Shigella sonnei Ss046), 416 nM.
As to KEENMVKSLV, in the assay with HLA-B*40:01 (setting [6]), the Kd worked out at 243 nM.
As for KEFASGRKSI, the Kd in the assay with HLA-B*40:01 (setting [1]) was 111 nM.
ESQMLIPKAY: the Kd was at least 39300 nM with HLA-A*01:01 (setting [1]) and 8.93 nM with HLA-A*30:02 (setting [1]).
WEPSKGWKNW: the Kd with HLA-B*44:02 (setting [1]) turned out to be 150 nM.
For the sequence QPSKGWHDW, the dissociation constant (Kd) in the assay with HLA-B*53:01 (setting [6]) turned out to be 207 nM.
Take TWALCEALTL: the results for the Kd in the assay with HLA-A*23:01 (setting [3]) and with HLA-A*24:02 (setting [3]) were 511 nM and 114 nM, respectively.
Consider PVNDLKYSW, for which the Kd with HLA-B*53:01 (setting [1]) stood at 782 nM.
LYIKDIFTR: the dissociation constant Kd with HLA-A*01:01 (setting [10]) is at least 78100 nM; with HLA-A*26:01 (setting [10]), at least 77900 nM; with HLA-A*30:02 (setting [10]) it was at least 76900 nM.
With HERGRPLLF, the Kd in the assay with HLA-B*44:03 (setting [1]) was determined as 1000 nM.
For the sequence KEGTFHTMW, the Kd with HLA-B*44:02 (setting [3]) was 102 nM; with HLA-B*44:03 (setting [3]), 47 nM.
As to ITEAELTGY, the Kd was found to be 8270 nM with HLA-A*26:01 (setting [3]) and 9.47 nM with HLA-A*30:02 (setting [3]).
With KAELEEGVY, in the assay with HLA-A*30:02 (setting [6]), the Kd was at least 52800 nM.
In the case of IPQWEPSKGW, the dissociation constant Kd in the assay with HLA-B*53:01 (setting [8]) came out at 90 nM.
For GHHTNFESF, the Kd with HLA-A*26:01 (setting [7]) was at least 77900 nM; in the assay with HLA-A*30:02 (setting [7]), 3830 nM.
As for LPEEQDQNY, the Kd with HLA-B*53:01 (setting [6]) turned out to be 1520 nM.
AVLQSGFRK: the results for the dissociation constant Kd in the assay with HLA-A*31:01 (source organism: SARS-CoV1), in the assay with HLA-A*33:01 and with HLA-A*68:01 were 186 nM, at least 77700 nM and 393 nM, respectively.
On to EPSKGWKNW, for which, in the assay with HLA-B*53:01 (setting [1]), the dissociation constant (Kd) is 608 nM.
Take AQIMEVTARW: the Kd in the assay with HLA-B*44:02 (setting [4]) is 156 nM; with HLA-B*44:03 (setting [4]), 104 nM.
Take LWEGSPGKF: the Kd with HLA-A*23:01 (setting [8]) turned out to be 7640 nM; with HLA-A*24:02 (setting [8]), 6160 nM.

One may read the Kd as a measure of binding affinity in units of concentration.
